Test results reported in paper PMC8571288.

How the values were obtained:
[1] = molecular target: CST complex (CTC1-STN1-TEN1) (Homo sapiens) (UniProt Q2NKJ3+Q9H668+Q86WV5); assay: smFRET; details: smFRET: 25 mM Tris-HCl pH 7.5, 0.5 mM EDTA, 10% glycerol, 50 or 150 mM KCl (temperature not stated), pull-down: 35 mM Tris-HCl pH 7.5, 10% glycerol, 0.01% …
[2] = molecular target: RPA complex (Homo sapiens) (UniProt P27694+P15927+P35244); assay: smFRET; details: smFRET: 25 mM Tris-HCl pH 7.5, 0.5 mM EDTA, 10% glycerol, 50 or 150 mM KCl (temperature not stated), pull-down: 35 mM Tris-HCl pH 7.5, 10% glycerol, 0.01% …
RPA complex (Homo sapiens), sequence (P27694 whole entry, chain 1 of 3): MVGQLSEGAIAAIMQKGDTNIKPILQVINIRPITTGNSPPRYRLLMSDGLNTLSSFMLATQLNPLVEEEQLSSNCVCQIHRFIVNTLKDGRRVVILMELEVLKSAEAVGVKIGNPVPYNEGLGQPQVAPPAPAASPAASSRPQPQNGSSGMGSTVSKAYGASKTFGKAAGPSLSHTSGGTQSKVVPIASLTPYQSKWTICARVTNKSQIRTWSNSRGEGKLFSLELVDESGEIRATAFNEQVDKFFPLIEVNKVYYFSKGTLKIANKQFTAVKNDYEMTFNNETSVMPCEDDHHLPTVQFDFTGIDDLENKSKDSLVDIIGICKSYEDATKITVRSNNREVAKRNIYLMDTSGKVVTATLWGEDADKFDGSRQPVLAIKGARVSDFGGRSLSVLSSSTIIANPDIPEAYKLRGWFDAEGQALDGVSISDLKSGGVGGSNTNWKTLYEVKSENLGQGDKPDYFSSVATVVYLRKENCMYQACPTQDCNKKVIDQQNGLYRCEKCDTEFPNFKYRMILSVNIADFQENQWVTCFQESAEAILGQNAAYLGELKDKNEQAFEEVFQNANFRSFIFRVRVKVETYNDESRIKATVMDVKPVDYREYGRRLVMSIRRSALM
RPA complex (Homo sapiens), sequence (P15927 whole entry, chain 2 of 3): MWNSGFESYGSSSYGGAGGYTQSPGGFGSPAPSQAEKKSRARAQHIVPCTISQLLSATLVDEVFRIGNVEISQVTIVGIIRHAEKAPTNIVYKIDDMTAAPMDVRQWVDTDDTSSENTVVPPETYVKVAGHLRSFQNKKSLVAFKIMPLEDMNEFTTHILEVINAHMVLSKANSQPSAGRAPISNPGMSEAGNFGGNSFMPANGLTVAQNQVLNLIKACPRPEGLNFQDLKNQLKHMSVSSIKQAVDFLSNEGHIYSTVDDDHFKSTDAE
RPA complex (Homo sapiens), sequence (P35244 whole entry, chain 3 of 3): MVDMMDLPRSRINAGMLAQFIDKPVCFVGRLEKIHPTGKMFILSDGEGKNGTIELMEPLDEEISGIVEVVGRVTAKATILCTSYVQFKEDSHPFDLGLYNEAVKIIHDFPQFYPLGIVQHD

CST complex (CTC1-STN1-TEN1) (Homo sapiens), sequence (Q2NKJ3 whole entry, chain 1 of 3): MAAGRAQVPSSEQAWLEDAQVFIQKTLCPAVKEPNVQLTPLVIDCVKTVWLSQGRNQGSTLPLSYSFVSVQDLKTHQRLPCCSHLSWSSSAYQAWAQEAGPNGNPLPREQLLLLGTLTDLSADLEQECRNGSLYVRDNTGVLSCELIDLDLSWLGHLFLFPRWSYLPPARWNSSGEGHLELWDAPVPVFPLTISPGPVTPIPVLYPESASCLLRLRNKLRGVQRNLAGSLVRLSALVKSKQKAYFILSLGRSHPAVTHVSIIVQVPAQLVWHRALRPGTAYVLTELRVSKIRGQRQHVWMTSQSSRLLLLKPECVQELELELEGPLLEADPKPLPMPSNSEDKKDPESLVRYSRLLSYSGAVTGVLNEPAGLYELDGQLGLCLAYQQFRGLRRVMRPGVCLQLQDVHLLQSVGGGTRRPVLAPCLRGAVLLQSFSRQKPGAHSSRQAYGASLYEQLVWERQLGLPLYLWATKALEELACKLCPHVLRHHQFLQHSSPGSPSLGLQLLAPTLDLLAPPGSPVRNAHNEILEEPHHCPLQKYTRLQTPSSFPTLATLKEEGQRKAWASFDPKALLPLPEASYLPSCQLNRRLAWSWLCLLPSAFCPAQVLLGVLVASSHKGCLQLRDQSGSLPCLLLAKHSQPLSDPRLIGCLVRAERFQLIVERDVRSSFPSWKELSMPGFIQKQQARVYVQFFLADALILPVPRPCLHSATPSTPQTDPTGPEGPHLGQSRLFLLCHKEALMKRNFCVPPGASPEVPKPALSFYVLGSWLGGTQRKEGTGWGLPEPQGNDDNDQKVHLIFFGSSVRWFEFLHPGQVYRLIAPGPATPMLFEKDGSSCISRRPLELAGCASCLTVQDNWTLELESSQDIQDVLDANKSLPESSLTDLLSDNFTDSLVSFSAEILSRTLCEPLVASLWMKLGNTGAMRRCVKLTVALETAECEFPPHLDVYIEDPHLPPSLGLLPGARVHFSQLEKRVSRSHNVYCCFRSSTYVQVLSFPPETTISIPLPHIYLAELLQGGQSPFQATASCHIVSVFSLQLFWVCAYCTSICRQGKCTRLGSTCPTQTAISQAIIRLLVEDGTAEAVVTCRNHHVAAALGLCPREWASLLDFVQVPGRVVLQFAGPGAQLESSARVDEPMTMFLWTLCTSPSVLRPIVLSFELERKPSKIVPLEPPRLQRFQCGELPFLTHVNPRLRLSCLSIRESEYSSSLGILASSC
CST complex (CTC1-STN1-TEN1) (Homo sapiens), sequence (Q9H668 whole entry, chain 2 of 3): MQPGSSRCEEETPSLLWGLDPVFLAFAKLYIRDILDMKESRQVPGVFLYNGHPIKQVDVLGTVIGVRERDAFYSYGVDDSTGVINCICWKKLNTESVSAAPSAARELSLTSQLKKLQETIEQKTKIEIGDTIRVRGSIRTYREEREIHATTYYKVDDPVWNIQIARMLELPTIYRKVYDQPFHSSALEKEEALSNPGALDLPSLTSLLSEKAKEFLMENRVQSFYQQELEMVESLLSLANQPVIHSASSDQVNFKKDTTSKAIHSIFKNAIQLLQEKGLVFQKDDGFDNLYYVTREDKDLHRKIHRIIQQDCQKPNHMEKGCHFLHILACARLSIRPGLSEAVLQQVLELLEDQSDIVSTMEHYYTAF
CST complex (CTC1-STN1-TEN1) (Homo sapiens), sequence (Q86WV5 whole entry, chain 3 of 3): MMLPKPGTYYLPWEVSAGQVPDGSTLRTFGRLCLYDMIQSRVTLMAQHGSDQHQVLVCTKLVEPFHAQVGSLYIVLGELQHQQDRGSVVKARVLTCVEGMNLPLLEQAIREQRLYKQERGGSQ

ACGCTGCCGAATTCTACCAGTGCCTTGCTAGGACATCTTTGCCCACCTGCAGGTTCACCC / GGGTGAACCTGCAGGTGGGCAAAGA [35-nt ssDNA overhang (Oligo 5+6)]
Kd ([1]; 50 mM KCl, Hill slope 2.74): 0.12 nM | Kd ([1]; 150 mM KCl, Hill slope 1.4): 0.29 nM | Kd ([2]; 50 mM KCl, Hill slope 3.14): 0.12 nM | Kd ([2]; 150 mM KCl, Hill slope 2.83): 0.11 nM
